Measured values published in patent publication US20210230279A1.

Columns and labels:
[1] = molecular target: recombinant human integrin αvβ6 (human) (UniProt P18564); assay: competition of 3G9 with RGD3 for binding to αvβ6 (sheet title); y axis 'Relative Inhibition of avb6 binding to TGFb3 peptide'; signal falls from about 1.03 to about 0.04 at log 4
[2] = molecular target: recombinant human integrin αvβ6 (human) (UniProt P18564); assay: blocking of adhesion (A590) of Cho cells expressing GARP/LTGFB1 to immobilized αvβ6; antibody concentration varied; unit taken from the axis log[Agonist], (ug/ml)
[3] = molecular target: recombinant human integrin αvβ6 (human) (UniProt P18564)

recombinant human integrin αvβ6 (human), sequence (chain, as listed by the source limits assumed, chain 1 of 2): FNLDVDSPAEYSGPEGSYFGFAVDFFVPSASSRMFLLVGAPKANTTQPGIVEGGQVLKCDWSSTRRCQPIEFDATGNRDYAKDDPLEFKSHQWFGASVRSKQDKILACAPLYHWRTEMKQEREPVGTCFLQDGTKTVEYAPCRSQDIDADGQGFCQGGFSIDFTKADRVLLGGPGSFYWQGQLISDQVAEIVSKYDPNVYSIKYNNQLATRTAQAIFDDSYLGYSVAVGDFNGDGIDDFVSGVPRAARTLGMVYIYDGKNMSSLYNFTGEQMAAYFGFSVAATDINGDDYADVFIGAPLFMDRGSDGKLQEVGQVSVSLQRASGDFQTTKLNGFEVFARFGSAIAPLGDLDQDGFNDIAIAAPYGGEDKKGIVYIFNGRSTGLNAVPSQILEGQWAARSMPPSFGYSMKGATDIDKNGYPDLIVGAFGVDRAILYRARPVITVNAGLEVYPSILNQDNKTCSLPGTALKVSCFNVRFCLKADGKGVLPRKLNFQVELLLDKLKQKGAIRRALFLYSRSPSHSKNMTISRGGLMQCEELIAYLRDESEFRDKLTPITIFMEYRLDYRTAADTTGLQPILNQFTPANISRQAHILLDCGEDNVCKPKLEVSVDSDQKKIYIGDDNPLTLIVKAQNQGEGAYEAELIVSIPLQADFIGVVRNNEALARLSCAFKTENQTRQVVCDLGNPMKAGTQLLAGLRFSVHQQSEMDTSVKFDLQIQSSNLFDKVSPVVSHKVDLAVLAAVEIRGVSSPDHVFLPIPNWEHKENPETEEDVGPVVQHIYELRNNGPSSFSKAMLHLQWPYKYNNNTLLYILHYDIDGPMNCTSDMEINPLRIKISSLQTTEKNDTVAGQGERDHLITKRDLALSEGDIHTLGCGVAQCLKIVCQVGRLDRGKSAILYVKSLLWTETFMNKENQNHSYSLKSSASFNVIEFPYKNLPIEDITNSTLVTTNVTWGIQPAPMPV
recombinant human integrin αvβ6 (human), sequence (P18564 22-707 limits assumed, chain 2 of 2): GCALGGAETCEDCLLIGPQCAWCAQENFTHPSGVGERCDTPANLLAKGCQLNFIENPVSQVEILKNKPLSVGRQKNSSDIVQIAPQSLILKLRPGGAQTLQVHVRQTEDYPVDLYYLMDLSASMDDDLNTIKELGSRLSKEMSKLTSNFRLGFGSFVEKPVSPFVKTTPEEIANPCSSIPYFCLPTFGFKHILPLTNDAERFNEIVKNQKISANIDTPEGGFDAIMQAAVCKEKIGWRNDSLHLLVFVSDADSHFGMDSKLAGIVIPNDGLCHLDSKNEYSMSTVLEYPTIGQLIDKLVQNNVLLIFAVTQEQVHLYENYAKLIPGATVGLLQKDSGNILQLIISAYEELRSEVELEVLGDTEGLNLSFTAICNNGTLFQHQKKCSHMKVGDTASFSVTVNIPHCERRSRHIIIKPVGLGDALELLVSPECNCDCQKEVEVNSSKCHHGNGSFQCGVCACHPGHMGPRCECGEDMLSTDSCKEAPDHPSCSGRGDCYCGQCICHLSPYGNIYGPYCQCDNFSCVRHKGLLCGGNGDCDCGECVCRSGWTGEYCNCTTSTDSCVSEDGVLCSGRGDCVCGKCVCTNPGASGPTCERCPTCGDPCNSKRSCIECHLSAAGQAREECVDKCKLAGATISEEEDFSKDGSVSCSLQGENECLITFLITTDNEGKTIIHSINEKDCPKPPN

LogEC50 (Log10 (ng/ml)) [1]: 2.93
EC50 [2]: 0.834 µg/mL
EC50 of inhibition of TGF-β activation (TMLC luciferase reporter) of GARP/LTGFB1 Cho cells on immobilized αvβ6; unit from the axis [3]: 0.922 µg/mL
Substance: Mab 3G9 (anti-β6) (antibody)
